In PMC9865355 one finds average MI diff data, which are given here for five substances.

Common to all, as to assay: split reporter (BiFC, NanoBiT)
Assay [1] concerns the target GLRaV-3 transmembrane movement protein p5, BiFC fusion (grapevine leafroll-associated virus 3 (isolate GP18)).
Assay [2] deals with GLRaV-3 coat protein (CP), BiFC fusion (grapevine leafroll-associated virus 3 (isolate GP18)).
Assay [3] concerns the target GLRaV-3 silencing suppressor p20B, BiFC fusion (grapevine leafroll-associated virus 3 (isolate GP18)).
Assay [4] concerns the target GLRaV-3 heat shock protein 70 homolog (HSP70h), BiFC fusion (grapevine leafroll-associated virus 3 (isolate GP18)).

In the case of “GLRaV-3 transmembrane movement protein p5, BiFC fusion (natural protein)”, the average MI diff in assay [1] turned out to be 114.

“GLRaV-3 coat protein (CP), BiFC fusion (natural protein)”: the average MI diff came to 27 in assay [2] and 55.7 in assay [3].

With “GLRaV-3 silencing suppressor p20B, BiFC fusion (natural protein)”, the average MI diff in assay [3] amounted to 92.7.

Consider “GLRaV-3 minor coat protein (CPm), BiFC fusion (natural protein)”, for which, in assay [3], the average MI diff is 27.2.

As to “GLRaV-3 heat shock protein 70 homolog (HSP70h), BiFC fusion (natural protein)”, the figures for the average MI diff in assay [2], in assay [4] and in assay [3] were 34.6, 51.8 and 45.5, respectively.
